For one experiment, the target named is human CD40 (human) (UniProt P25942). The experiment can be described thus: cell-based or functional assay.
Experiment [1] has as its target human OX40 ligand (OX40L) (human) (UniProt P23510). Put plainly: cell-based or functional assay.

Values joined by “and” are separate entries in the source; they are usually repeats but may differ in a detail not shown here. Identical values can stand only once.

Sequence of UniProt P23510 (P23510 whole entry): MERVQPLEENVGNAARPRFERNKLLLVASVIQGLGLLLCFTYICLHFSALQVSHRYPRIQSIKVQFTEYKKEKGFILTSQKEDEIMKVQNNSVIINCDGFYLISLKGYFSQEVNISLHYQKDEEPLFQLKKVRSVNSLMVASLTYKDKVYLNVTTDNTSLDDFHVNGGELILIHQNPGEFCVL
Sequence of UniProt P25942 (P25942 21-277): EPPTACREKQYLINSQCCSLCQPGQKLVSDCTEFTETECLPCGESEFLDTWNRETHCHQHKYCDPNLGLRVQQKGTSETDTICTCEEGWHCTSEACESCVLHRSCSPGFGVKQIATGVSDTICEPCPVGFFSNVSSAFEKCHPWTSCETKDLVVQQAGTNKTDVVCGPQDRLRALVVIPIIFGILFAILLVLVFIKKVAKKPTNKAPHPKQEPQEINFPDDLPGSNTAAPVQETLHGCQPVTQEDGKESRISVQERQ

“recombinant human soluble CD40L (from UniProt P29965 116-261) (ligand)”: in the experiment with human CD40 (human), the IL-6 production by HASM cells (ELISA), 1 ug/ml was 2 fold and 3 fold.

B1: Soluble human recombinant OX40 [CD134]:Fc (Fc fusion, UniProt P43489 29-220, looked up, not shown: a dimerising Fc or GST)
chain: LHCVGDTYPSNDRCCHECRPGNGMVSRCSRSQNTVCRPCGPGFYNDVVSSKPCKPCTWCNLRSGSERKQLCTATQDTVCRCRAGTQPLDSYKPGVDCAPCPPGHFSPGDNQACKPWTNCTLAGKHTLQPASNSSDAICEDRDPPATQPQETQGPPARPITVQPTEAWPRTSQGPSTRPVEVPGGRAVAAILG
Turning to B1, in experiment [1], the IL-6 production by HASM cells (ELISA), 1 ug/ml was 2 fold and 3 fold; the PKCβ2 in membrane fraction (Western blot), HASM cells turned out to be 3 fold.

(Values after patent publication US20040009174A1.)
